Results on one molecule are retold here after PMC7710722, “A nanobody suite for yeast scaffold nucleoporins provides details of the nuclear pore complex structure” (Nature Communications, 2020).

Assay [1] concerns the target T1, fusion construct of Nup145C-Sec13 (Saccharomyces cerevisiae S288c, UniProt P49687;Q04491).
T1 construct: Nup145C, the C-terminal product of Nup145, S. cerevisiae; named among the 'full-length nups'; Sec13, S. cerevisiae; source: E. coli
The assay is described as follows: SEC; nup and nanobody incubated 30 min on ice, then Superdex S75 or S200 10/300 in 150 mM NaCl, 10 mM Tris/HCl pH 7.5, 1 mM DTT, 0.1 mM EDTA. To be noted: both partners purified. In general terms: In gel filtration, larger molecules generally elute earlier.

The target of assay [2] is T2, Sec13 fused to the Nup145C insertion blade (Saccharomyces cerevisiae S288c, UniProt Q04491).
T2 construct: Sec13, S. cerevisiae; Nup145C insertion blade, S. cerevisiae, residues 320-411 as printed; also called Sec13-Nup145C_(320–411); Sec13-Nup145C_(blade); source: E. coli LOBSTR-RIL(DE3), purified (Ni Sepharose, 3C protease, Superdex S75)
The description is as above. The following applies: both partners purified.

B1: VHH-SAN6 (VHH)
VHH: QLQLVETGGGSVQAGGSLSLSCIVSGRTSTYYAMGWFRQAPGKEREFVAAINWSGSSTVYEESVKGRFTISRDNVQNTVYLQMNSLKPEDTADYYCAAAATIFIPRPDEYPYWGQGTQVTVSS
notes: source: E. coli LOBSTR-RIL(DE3), purified (Ni Sepharose, SEN-p protease, Superdex S75); not shown: 14xHis, N-terminal, cleaved; bdSUMO, N-terminal, cleaved
Turning to B1, the binding result in assay [1] is “binds”; in assay [2], “no binding”.
